Results reported in patent US20210190798A1, “METHODS OF QUANTIFYING LIF AND USES THEREOF” (MEDIMMUNE LIMITED, priority 2018, published 2021).

Target: LIF (Homo sapiens, UniProt P15018)
Experiment: Competitive binding assays against LIF (capture antibody screening)
Protocol: The capture antibody A4 (set forth in SEQ ID NOs: 41 and 42) was determined by screening potential antibodies using competitive binding assays against LIF.

Chain of LIF (P15018 23-202): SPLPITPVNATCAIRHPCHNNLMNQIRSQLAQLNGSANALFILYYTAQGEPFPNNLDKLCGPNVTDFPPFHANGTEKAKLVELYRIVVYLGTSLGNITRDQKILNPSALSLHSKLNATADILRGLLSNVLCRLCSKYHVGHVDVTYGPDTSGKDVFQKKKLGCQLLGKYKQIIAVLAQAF

binding to LIF: high binding
interference with binding by therapeutic antibody h5D8 or M017C3: did not interfere
B1: A4: rabbit monoclonal anti-LIF capture antibody, variable regions SEQ ID NOs: 41 and 42 (antibody, V domains shown)
VH: EQLEESVGDLVKPGASLTLTCTASGFSFSGLYYMCWVRQAPGKGLEWIACIWTGSTDSTYYATWAKGRFTISKTSSTTVTLQMTSLTVADTATYFCARGGGVPGDGYALWGPGTLVTVSS
VL: GTELVMTQTPASVSEPVGGTVTINCQASEDISSNLVWYQQKSGQPPKLLIYDASMLASGVPSRFKGSGSGTQFTLTISDLECADGATYYCQSYYVASSSYFVNGFGGGTEVV
